# Measured values published in patent US10465009B2, “BCMA antigen binding proteins” (Amgen Inc., priority 2012, dated 2019).
# Numbering of substitutions follows the chain as printed. Entries after “also recorded” stand apart in the source; their conditions may differ.
# T1: [6x Histidine-SUMO]-huBCMA (SEQ ID NO:350) and carboxy terminal clipped forms (Homo sapiens, UniProt Q02223)
# T1 construct: GGS-G3 linker + Avi tag (lost in the clipped species) (C); made in house
# T1 sequence (Q02223 5-54): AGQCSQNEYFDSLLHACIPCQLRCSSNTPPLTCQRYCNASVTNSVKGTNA
# B1: 29C12.1 ADC (conjugate)
# VH: EVQLLESGGALVQPGGSLRLSCAASGFTFSSYAMNWVRQAPGKGLEWVSAISVGGDTYYADSVKGRFTISRDNSKNTLYLQMNSLRAEDTAVYYCAKDQVTMVRGVWYYYGLDVWGQGTTVTVSS
# VL: DIVMIQSPLSLPVTPGEPASISCRSSQSLLHSNGNNYLDWYLQKPGQSPHLLISLGSNRTSGVPDRFSGSGSGTDFTLKISRVEAEDVGVYYCMQALQPPRRFGQGTKLEIKR
# B2: 33C7.1 ADC (conjugate)
# VH: B1 VH with Q81H, M82V, R86S, T90S, M102L
# VL: B1 VL with D1V, M4L, V90F
# B3: 35D2.1 ADC (conjugate)
# VH: B1 VH with D56G, Q81H, M82V
# VL: B1 VL with D1V, M4L, V90F
# B4: 32B5.1 ADC (conjugate)
# VH: B1 VH with Q81H, M82V, R86S, T90S, M102L
# VL: B1 VL with D1V, M4L, V90F
# B5: 29C12-MCC-DM1 (conjugate)
# VH: B1 VH
# VL: B1 VL
# B6: 32B5-MCC-DM1 (conjugate)
# VH: B1 VH with Q81H, M82V, R86S, T90S, M102L
# VL: B1 VL with D1V, M4L, V90F
# B7: 37B2.1 ADC (conjugate)
# VH: B1 VH with S31N, Q81H, M82V, R86S, T90S, M102L
# VL: B1 VL with D1V, M4L, V90F
# B8: 40D7.1 ADC (conjugate)
# VH: B1 VH
# VL: B1 VL with Y37F, F67L, V90I, Q98R
# B9: 29C12: second campaign anti-huBCMA mAb, Vh SEQ ID NO:220, Vl SEQ ID NO:254 (antibody, V domains shown)
# VH: B1 VH
# VL: B1 VL
# Test system: H929 cells
# Test: CellTiter-Glo Luminescent Cell Viability Assay, H929
# Format: cell-based, human
# Conditions: not given
# Description: The ADCs were tested for the ability to target and kill BCMA-expressing myeloma cells. The CellTiter-Glo® Luminescent Cell Viability Assay is a homogeneous method to determine the number of viable cells in culture based on quantitation of the ATP present, which signals the presence of metabolically active cells. The CellTiter-Glo® Assay is applicable to cytotoxicity assays (see http://www.promega.com/products/cell-health-assays/cell-viability-assays/celltiterglo-luminescent-cell-viability-assay/ for more information). The cell viability assay was used to assess the relative killing capacity of various ADCs on various multiple myeloma cell lines and B-cell lines. The protocol provided in the Cell Titer-Glo kit (Promega G7572) was followed. In short, 5×10^3 target cells in 90 ul RPMI 1640, 10% FBS were aliquoted into clear, flat bottom, white walled 96 well plates (Costar #3903). The ADCs were diluted into a 10× stock to create 500 nM maytansine drug equivalents. Each ADC was serially diluted in 2-fold dilutions in RPMI 1640, 10% FBS starting with 500 nM stock. 10 ul of the 10×ADC dilution series was added to the 90 ul of cells in media (triplicate wells). The highest concentration of ADC was approximately 50 nM maytansine drug equivalents, and the lowest concentration of ADC was approximately 50 pM maytansine drug equivalents. An isotype control ADC (an anti-streptavidin huIgG1 conjugated to MCC-DM1) was included, as well as a media-only control. The plates were incubated at 37° C., 5% CO2 for 96 hours. After incubation, 100 ul of the Substrate Solution (Promega G7572) was added to each well. Luminescence was read on an EnVision™ Multilabel reader (PerkinElmer) or Analyst HT plate reader (LJL Biosciences). The data was analyzed and graphed using GraphPad Prism™ to determine the relative efficacy of the ADCs on various cancer cell lines.
# The 2A1CV5-MCC-DM1, 32B5-MCC-DM1 and 29C12-MCC-DM1 ADCs were tested for the ability to target and kill BCMA-expressing myeloma cells (H929). The CellTiter-Glo® Luminescent Cell Viability Assay is a homogeneous method to determine the number of viable cells in culture based on quantitation of the ATP present, which signals the presence of metabolically active cells. The CellTiter-Glo® Assay is applicable to cytotoxicity assays (see http://www.promega.com/products/cell-health-assays/cell-viability-assays/celltiter_glo-luminescent-cell-viability-assay/ for more information). The cell viability assay was used to assess the relative killing capacity of various ADCs on various multiple myeloma cell lines and B-cell lines. The protocol provided in the Cell Titer-Glo kit (Promega G7572) was followed. In short, 5×10^3 target cells in 90 ul RPMI 1640, 10% FBS were aliquoted into clear, flat bottom, white walled 96 well plates (Costar #3903). The ADCs were diluted into a 10× stock to create 500 nM maytansine drug equivalents. Each ADC was serially diluted in 2-fold dilutions in RPMI 1640, 10% FBS starting with 500 nM stock. 10 ul of the 10×ADC dilution series was added to the 90 ul of cells in media (triplicate wells). The highest concentration of ADC was approximately 50 nM maytansine drug equivalents, and the lowest concentration of ADC was approximately 50 pM maytansine drug equivalents. An isotype control ADC (an anti-streptavidin huIgG1 conjugated to MCC-DM1) was included, as well as a media-only control. The plates were incubated at 37° C., 5% CO2 for 96 hours. After incubation, 100 ul of the Substrate Solution (Promega G7572) was added to each well. Luminescence was read on an EnVision™ Multilabel reader (PerkinElmer) or Analyst HT plate reader (LJL Biosciences). The data was analyzed and graphed using GraphPad Prism™ to determine the relative efficacy of the ADCs on various cancer cell lines.
row,Molecule,killing of huBCMA-expressing myeloma cells (H929)
1,B1,selectively killed huBCMA-expressing target cells; also recorded: showed cytotoxicity
2,B2,selectively killed huBCMA-expressing target cells; also recorded: showed cytotoxicity
3,B3,selectively killed huBCMA-expressing target cells; also recorded: showed cytotoxicity
4,B4,selectively killed huBCMA-expressing target cells; also recorded: showed cytotoxicity
5,B5,able to target and kill BCMA-expressing myeloma cells (H929)
6,B6,able to target and kill BCMA-expressing myeloma cells (H929)
7,B7,selectively killed huBCMA-expressing target cells; also recorded: showed cytotoxicity
8,B8,selectively killed huBCMA-expressing target cells; also recorded: showed cytotoxicity

# Test system: various cell lines
# Test: Cell viability control: cell lines exposed to free DM1
# Format: cell-based, human
# Conditions: FIG. 13
# Description: The ADCs were tested for the ability to target and kill BCMA-expressing myeloma cells. The CellTiter-Glo® Luminescent Cell Viability Assay is a homogeneous method to determine the number of viable cells in culture based on quantitation of the ATP present, which signals the presence of metabolically active cells. The CellTiter-Glo® Assay is applicable to cytotoxicity assays (see http://www.promega.com/products/cell-health-assays/cell-viability-assays/celltiterglo-luminescent-cell-viability-assay/ for more information). The cell viability assay was used to assess the relative killing capacity of various ADCs on various multiple myeloma cell lines and B-cell lines. The protocol provided in the Cell Titer-Glo kit (Promega G7572) was followed. In short, 5×10^3 target cells in 90 ul RPMI 1640, 10% FBS were aliquoted into clear, flat bottom, white walled 96 well plates (Costar #3903). The ADCs were diluted into a 10× stock to create 500 nM maytansine drug equivalents. Each ADC was serially diluted in 2-fold dilutions in RPMI 1640, 10% FBS starting with 500 nM stock. […] Luminescence was read on an EnVision™ Multilabel reader (PerkinElmer) or Analyst HT plate reader (LJL Biosciences). The data was analyzed and graphed using GraphPad Prism™ to determine the relative efficacy of the ADCs on various cancer cell lines. […]
row,Molecule,killing of cell lines by free drug
1,COc1cc2cc(c1Cl)N(C)C(=O)C[C@H](OC(=O)[C@H](C)N(C)C(=O)CCS)[C@]1(C)O[C@H]1[C@H](C)[C@@H]1C[C@@](O)(NC(=O)O1)[C@H](OC)/C=C/C=C(\C)C2 [DM1],killed by free DM1

# Target: T1, [6x Histidine-SUMO]-huBCMA (SEQ ID NO:350) and carboxy terminal clipped forms
# Test: Size exclusion chromatography and LC/MS of antibody complexes with Sumo-huBCMA and its clipped forms
# Format: binding
# Conditions: SEC
# Excerpt: To determine which forms of 6×His-SUMO-huBCMA were bound to the anti-huBCMA antibodies, the SEC fractions were isolated and analyzed. Carboxy-terminus fragments of the extracellular domain of human BCMA were generated as clipped forms from the rhuBCMA fusion protein (6×His::Sumo::huBCMA(aa 5-51)::GGS::G3::Avi) of SEQ ID NO:350, as shown in FIG. 45.
# A Superdex 200™ 10/30 cm SEC column (GE Healthcare Life Sciences) was used according to the manufacturer's recommendations and run in phosphate buffered saline (PBS). Incubations of antibody with excess levels of sumoBCMA were performed at room temperature for at least 30 minutes.
# A Superdex 200™ 10/30 cm SEC column (GE Healthcare Life Sciences) was used according to the manufacturer's recommended condision and run in phosphate buffered saline (PBS). Incubations of antibody with excess levels of sumoBCMA were performed at room temperature for at least 30 minutes.
# 5 ug of total proteins were reduced in 50 mM Tris/4 M guanidine/9 mM DTT, pH 8.0 at 55° C. for 15 min, and analyzed in Agilent LCTOF system using a Vydac C8 column, 2.1 mm ID×150 mm, […] particle size. […] TOF MS conditions included capillary voltage of 4000 V, drying gas flow at 10 L/min, dry gas temperature at 300° C., nebulizer gas flow at 40 L/min, and fragmentor voltage of 300 V. MS data was analyzed in Agilent MassHunter™ Qualitative Analysis program.
row,Molecule,binding to full-length and truncated forms of huBCMA
1,B9,bound full-length and truncated forms of BCMA; also recorded: bound all forms of human BCMA
